The target of test [1] is HIV-1 Env (LAV) (HIV-1 (LAV)) (UniProt P03377). The test is described as follows: cell-based or functional assay.
Test [2] deals with HIV-1 wildtype (WT) SF162 Env (HIV-1 (SF162)) (UniProt P19550). In words: cell-based or functional assay.

The text below walks through data of patent EP1161455B1.

In test [1], MAb 17b (antibody) came in with a % control, Standard Assay (target cells with CXCR4 and CD4, no sCD4); 17b 0.1 µg/ml of 93.4 % control; a % control, Standard Assay (target cells with CXCR4 and CD4, no sCD4); 17b 0.5 µg/ml of 104 % control; a % control, Standard Assay (target cells with CXCR4 and CD4, no sCD4); 17b 1 µg/ml of 94.1 % control; a % control, Standard Assay (target cells with CXCR4 and CD4, no sCD4); 17b 5 µg/ml of 119 % control. In test [1], this substance returned a % control, sCD4 Assay (target cells with CXCR4 alone, sCD4 200 nM added); 17b 0.1 µg/ml of 114 % control; a % control, sCD4 Assay (target cells with CXCR4 alone, sCD4 200 nM added); 17b 0.5 µg/ml of 39.2 % control; a % control, sCD4 Assay (target cells with CXCR4 alone, sCD4 200 nM added); 17b 1 µg/ml of 14.1 % control; a % control, sCD4 Assay (target cells with CXCR4 alone, sCD4 200 nM added); 17b 5 µg/ml of 0 % control. Further, in test [1], the β-gal, Standard Assay (target cells with CXCR4 and CD4, no sCD4); 17b 0.1 µg/ml; no MAb 42.3 was determined as 39.5; the β-gal, Standard Assay (target cells with CXCR4 and CD4, no sCD4); 17b 0.5 µg/ml turned out to be 43.9; the β-gal, Standard Assay (target cells with CXCR4 and CD4, no sCD4); 17b 1 µg/ml turned out to be 39.8; the β-gal, Standard Assay (target cells with CXCR4 and CD4, no sCD4); 17b 5 µg/ml was 50.5. In test [1], this substance registered a β-gal, sCD4 Assay (target cells with CXCR4 alone, sCD4 200 nM added); 17b 0.1 µg/ml; no MAb 11.89 of 13.6; a β-gal, sCD4 Assay (target cells with CXCR4 alone, sCD4 200 nM added); 17b 0.5 µg/ml of 4.66; a β-gal, sCD4 Assay (target cells with CXCR4 alone, sCD4 200 nM added); 17b 1 µg/ml of 1.68; a β-gal, sCD4 Assay (target cells with CXCR4 alone, sCD4 200 nM added); 17b 5 µg/ml of 0.
Turning to “soluble CD4 (from UniProt P01730 26-208) (receptor)”, in test [2], the Total β-gal, WT Env (SF162), duplicate 1; effector cells with Env, target cells with CCR5 and no CD4; + sCD4 (100 nM) amounted to 6.6; the Total β-gal, WT Env (SF162), mean; + sCD4 (100 nM); 0.45 without sCD4 was determined as 5.9.
